Laboratory results: patent US20120252730A1, “PLATELET AGGREGATION INHIBITORS” (UNIVERSITY OF CHICAGO, priority 2009, published 2012)
maleimide monolayer = not defined here

B1: Ac-GAGDSC (SEQ ID NO: 30), immobilized on a monolayer array (peptide)
peptide: Ac-GAGDSC(maleimide monolayer)-NH2
modifications: not fully specified; printed as Ac-GAGDSC; reading uncertain
notes: also called 0.5% Ac-GAGDSC; Ac-GXGDSC with X = Ala
B2: Ac-GGGDSC (SEQ ID NO: 29), immobilized on a monolayer array (peptide)
peptide: Ac-GGGDSC(maleimide monolayer)-NH2
modifications: not fully specified; printed as Ac-GGGDSC; reading uncertain
notes: also called 0.5% Ac-GGGDSC; Ac-GXGDSC with X = Gly
B3: Ac-GIGDSC (SEQ ID NO: 33), immobilized on a monolayer array (peptide)
peptide: Ac-GIGDSC(maleimide monolayer)-NH2
modifications: not fully specified; printed as Ac-GIGDSC; reading uncertain
notes: also called 0.5% Ac-GIGDSC; Ac-GXGDSC with X = Ile
B4: Ac-GKGDSC (SEQ ID NO: 31), immobilized on a monolayer array (peptide)
peptide: Ac-GKGDSC(maleimide monolayer)-NH2
modifications: not fully specified; printed as Ac-GKGDSC; reading uncertain
notes: also called 0.5% Ac-GKGDSC; Ac-GXGDSC with X = Lys
B5: Ac-GLGDSC (SEQ ID NO: 34), immobilized on a monolayer array (peptide)
peptide: Ac-GLGDSC(maleimide monolayer)-NH2
modifications: not fully specified; printed as Ac-GLGDSC; reading uncertain
notes: also called 0.5% Ac-GLGDSC; Ac-GXGDSC with X = Leu
B6: Ac-GVGDSC (SEQ ID NO: 32), immobilized on a monolayer array (peptide)
peptide: Ac-GVGDSC(maleimide monolayer)-NH2
modifications: not fully specified; printed as Ac-GVGDSC; reading uncertain
notes: also called 0.5% Ac-GVGDSC; Ac-GXGDSC with X = Val

What was measured:
αIIbβ3 CHO K1 cells = assay: Cell adhesion assay: αIIbβ3 CHO K1 cells on SAMs presenting immobilized peptides; format: cell-based, human; conditions: 0.5% peptide SAM; in presence of 300 μM cRGDFG
Method: Monolayers were prepared as described (Houseman, et al., 2003). Glass coverslips were sonicated for 30 minutes in deionized ultrafiltered (DIUF) water and then 30 minutes in ethanol and then dried under a stream of nitrogen. Titanium (4 nm) and then gold (29 nm) were evaporated onto the coverslips using an electron beam evaporator (Boc Edwards) at a rate of 0.05-0.10 nm/s and at a pressure of 1 μTorr. The gold-coated coverslips were immersed in an ethanolic solution of maleimide-terminated disulfide (1%) and tri(ethylene glycol)-terminated disulfide (99%) overnight at room temperature. The total disulfide concentration was 1 mM. The substrates were washed with DIUF water, ethanol and then dried under a stream of nitrogen.
The pcDNA3.1 vectors that express human αIIb or β3, respectively, have been described previously (see e.g., Litvinov et al. (2006) Biochemistry, 45: 4957-4964). CHO K1, BHK 21 and HT1080 cells were purchased from ATCC. All CHO cells were cultured at 37° C. and 5% CO2 using F12K medium supplemented with 10% FBS and pen/strep. […] CHO K1 cells were transfected with αIIb and β3 cDNA with FuGENE following the supplier's protocol. Transfected cells were selected with 1 mg/mL zeocin and 1 mg/mL geneticin.
(§1) Cysteine-terminated peptides were immobilized onto maleimide-presenting SAMs by adding 40 μL of 1 mM peptide solution to the biochip and incubating at 37° C. for 1 hour. Substrates were rinsed with DIUF water and ethanol and dried under a stream of nitrogen. αIIbβ3 CHO K1 cells were detached from culture plates with 1 mM EGTA/2 mM EDTA in PBS (phosphate-buffered saline), rinsed with serum-free F-12K medium, centrifuged and resuspended in serum-free F-12K medium supplemented with cRGDFG (SEQ ID NO: 12) (300 μM) and 1× penicillin/streptomycin. After 15-minute of incubation, cells (200,000/mL) were added to substrates in 24-well culture plates. After 2 hour incubation at 37° C. and 5% CO2, media was exchanged for F-12K medium supplemented with 10% FBS, 1× penicillin/streptomycin and cRGDFG (SEQ ID NO: 12) (300 μM). After 2 hours, the substrates were washed gently with warm PBS, and adherent cells were immediately fixed with 4% formaldehyde for 30 minutes, visualized with a 20× objective of a Zeiss Axiovert 200 inverted microscope, and photographed. For cell adhesion assays mediated by Ac-GXGDSC (SEQ ID NO: 26), αIIbβ3 CHO K1 cells were incubated on a 5×4 circle (1 mm diameter) array for 1 hour with serum-free F-12K medium supplemented with cRGDFG (SEQ ID NO: 12) (300 μM) and 1× penicillin/streptomycin, followed by media exchange to F-12K medium supplemented with 10% FBS, 1× penicillin/streptomycin and cRGDFG (SEQ ID NO: 12) (300 μM. The substrates were washed with warm PBS, and adherent cells were immediately fixed and permeabilized with 4% formaldehyde and 0.5% Triton-X for 30 minutes. Fixed cells were stained with DAPI, visualized and photographed with a 20× objective as described. The number of adherent cells per field of view was counted using Image J software. Cells were counted in at least three fields for each circle, and each experiment was repeated 3 times. The degree of adhesion is reported as a percentage of cells that adhere relative to control experiments with the peptide Ac-GRGDSC (SEQ ID NO: 28).
Monolayers were prepared that presented a mixture of maleimide groups and tri(ethylene glycol) groups with the former present at a density of 0.5% (relative to total alkanethiolate). The monolayers were treated with cysteine-terminated peptides to immobilize the ligands (FIG. 1A). In each case mass spectrometry was used to verify immobilization of the peptides in high yield (Su et al., 2002).
The adhesion and spreading of αIIbβ3 CHO K1 cells to monolayers presenting GRGDSC (SEQ ID NO: 11), HHLGGAKQAGDVC (SEQ ID NO: 21) and a mixture of both peptides was compared. […]

[1] = biological target: T1, human αIIbβ3 integrin on transfected CHO K1 cells (human, UniProt P08514 32-1039; P05106 27-788); assay: Ac-GXGDSC peptide array, adhesion of αIIbβ3 CHO K1 cells
T1 construct: whole, on cells; CHO K1 cells transfected with human αIIb and β3 cDNA; about 30% of the cells expressed the receptor; also called platelet receptor; platelet integrin
Method: as §1, with “After” for “Cysteine-terminated peptides were immobilized onto maleimide-presenting SAMs by adding 40 μL of 1 mM peptide solution to the biochip and incubating at 37° C. for 1 hour. Substrates were rinsed with DIUF water and ethanol and dried under a stream of nitrogen. αIIbβ3 CHO K1 cells were detached from culture plates with 1 mM EGTA/2 mM EDTA in PBS (phosphate-buffered saline), rinsed with serum-free F-12K medium, centrifuged and resuspended in serum-free F-12K medium supplemented with cRGDFG (SEQ ID NO: 12) (300 μM) and 1× penicillin/streptomycin. After”, “CO₂,” for “CO2,”
To further assay the binding of peptide ligands to the […] integrin for XGD peptide ligands, an array was used to assess the adhesion of cells to peptides having the arginine residue substituted with each amino acid other than cysteine (e.g., A, D, E, F, G, H, I, K, L, M, N, P, Q, R, S, T, V, W, and Y). The library of Ac-GXGDSC (SEQ ID NO: 26) peptides was synthesized and immobilized in an array with each peptide occupying a 1 mm diameter region of the monolayer (FIG. 61). A suspension of αIIbβ3 CHO K1 cells was applied to the entire array and cells were allowed to attach to regions presenting the various peptides. The substrates were then rinsed and stained with DAPI, and the cells were counted to determine the relative efficiency of cell attachment to peptides in the library.

| Molecule | adhesion of αIIbβ3 CHO K1 cells to monolayer presenting the peptide (αIIbβ3 CHO K1 cells) | binding result [1] |
| --- | --- | --- |
| AGDVC (completely synthesized peptide) | adhered | – |
| GDVC (completely synthesized peptide) | failed to adhere | – |
| GGAKQAC (completely synthesized peptide) | failed to adhere | – |
| GHHLGGADQAGKVC (scrambled peptide) | lack of cell attachment | – |
| HHLGGAC (completely synthesized peptide) | failed to adhere | – |
| KQAGC (completely synthesized peptide) | failed to adhere | – |
| KQAGDC (completely synthesized peptide) | adhered | – |
| KQAGDVC (completely synthesized peptide) | adhered and spread | – |
| QAGDVC (completely synthesized peptide) | adhered | – |
| B1 | – | binds |
| B2 | – | binds |
| B3 | – | binds |
| B4 | – | binds |
| B5 | – | binds |
| B6 | – | binds |
| Ac-GDGDSC(maleimide monolayer)-NH2 (not fully specified; printed as Ac-GXGDSC; reading uncertain, Member of the Ac-GXGDSC library) [Ac-GXGDSC (SEQ ID NO: 26) with X = D, immobilized on a monolayer array] | – | no binding |
| Ac-GFGDSC(maleimide monolayer)-NH2 (not fully specified; printed as Ac-GXGDSC; reading uncertain, Member of the Ac-GXGDSC library) [Ac-GXGDSC (SEQ ID NO: 26) with X = F, immobilized on a monolayer array] | – | no binding |
| Ac-GHGDSC(maleimide monolayer)-NH2 (not fully specified; printed as Ac-GXGDSC; reading uncertain, Member of the Ac-GXGDSC library) [Ac-GXGDSC (SEQ ID NO: 26) with X = H, immobilized on a monolayer array] | – | no binding |
| Ac-GMGDSC(maleimide monolayer)-NH2 (not fully specified; printed as Ac-GXGDSC; reading uncertain, Member of the Ac-GXGDSC library) [Ac-GXGDSC (SEQ ID NO: 26) with X = M, immobilized on a monolayer array] | – | no binding |
| Ac-GPGDSC(maleimide monolayer)-NH2 (not fully specified; printed as Ac-GXGDSC; reading uncertain, Member of the Ac-GXGDSC library) [Ac-GXGDSC (SEQ ID NO: 26) with X = P, immobilized on a monolayer array] | – | no binding |
| Ac-GQGDSC(maleimide monolayer)-NH2 (not fully specified; printed as Ac-GXGDSC; reading uncertain, Member of the Ac-GXGDSC library) [Ac-GXGDSC (SEQ ID NO: 26) with X = Q, immobilized on a monolayer array] | – | no binding |
| Ac-GSGDSC(maleimide monolayer)-NH2 (not fully specified; printed as Ac-GXGDSC; reading uncertain, Member of the Ac-GXGDSC library) [Ac-GXGDSC (SEQ ID NO: 26) with X = S, immobilized on a monolayer array] | – | no binding |
| Ac-GTGDSC(maleimide monolayer)-NH2 (not fully specified; printed as Ac-GXGDSC; reading uncertain, Member of the Ac-GXGDSC library) [Ac-GXGDSC (SEQ ID NO: 26) with X = T, immobilized on a monolayer array] | – | no binding |
| Ac-GWGDSC(maleimide monolayer)-NH2 (reading uncertain; also: printed as Ac-GXGDSC, Member of the Ac-GXGDSC library) [Ac-GXGDSC (SEQ ID NO: 26) with X = W, immobilized on a monolayer array] | – | no binding |
| Ac-GYGDSC(maleimide monolayer)-NH2 (reading uncertain; also: printed as Ac-GXGDSC, Member of the Ac-GXGDSC library) [Ac-GXGDSC (SEQ ID NO: 26) with X = Y, immobilized on a monolayer array] | – | no binding |
| Ac-GRGDSC(maleimide monolayer)-NH2 (not fully specified; printed as Ac-GRGDSC; reading uncertain, also called 0.5% Ac-GRGDSC) [Ac-GRGDSC (SEQ ID NO: 28), immobilized on a monolayer array] | – | binds |
